# According to PMC11586170, “Amino-functionalized vertically ordered mesoporous silica film on electrochemically polarized screen-printed carbon electrodes for the construction of gated electrochemical aptasensors and sensitive d”:
# Target: carcinoembryonic antigen (CEA) (UniProt P06731 35-685)
# Assay: electrochemical aptasensor (DPV, Fe(CN)6 3-/4- probe); aptamer immobilized on BSA-blocked NH2-VMSF/p-SPCE; linear range 100 fg/mL-100 ng/mL, LOD 24 fg/mL (not an affinity); aptamer immobilized in 0.01 M PBS pH 7.4 (4 C, 90 min), BSA block 0.1 wt%; CEA incubation 60 min; CEA binding buffer and temperature not in the material
# Conditions: protein: commercial
# carcinoembryonic antigen (CEA), sequence (P06731 35-685): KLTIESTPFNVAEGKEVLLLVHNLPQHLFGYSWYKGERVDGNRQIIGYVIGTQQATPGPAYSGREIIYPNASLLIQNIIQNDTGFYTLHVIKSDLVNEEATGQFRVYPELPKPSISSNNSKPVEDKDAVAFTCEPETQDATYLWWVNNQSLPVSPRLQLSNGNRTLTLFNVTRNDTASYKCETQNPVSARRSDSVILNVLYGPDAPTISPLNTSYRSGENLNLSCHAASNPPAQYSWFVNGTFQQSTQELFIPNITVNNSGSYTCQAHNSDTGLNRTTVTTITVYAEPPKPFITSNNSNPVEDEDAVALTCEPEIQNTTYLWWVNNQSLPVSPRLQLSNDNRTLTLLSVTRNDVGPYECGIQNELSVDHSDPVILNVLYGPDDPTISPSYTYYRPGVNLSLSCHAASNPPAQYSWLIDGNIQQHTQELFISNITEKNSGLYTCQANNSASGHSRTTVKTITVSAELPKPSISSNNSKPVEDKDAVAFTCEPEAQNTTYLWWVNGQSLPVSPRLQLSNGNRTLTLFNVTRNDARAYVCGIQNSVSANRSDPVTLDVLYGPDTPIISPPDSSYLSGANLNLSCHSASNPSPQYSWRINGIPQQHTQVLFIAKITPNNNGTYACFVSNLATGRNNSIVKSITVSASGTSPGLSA
binder,measurement,value
"ATACAGCTTCAATT (ssDNA, 3'-NH2) [amino-modified CEA aptamer (Apt)]",binding result,binds
